Columns and labels:
[1] = system: T1, AF15q14 peptide GFLNEPLSSKSQRRKSLKLK (SEQ ID NO:132)
T1 sequence: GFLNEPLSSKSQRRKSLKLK

[2] = system: T2, ARHGAP6 peptide DGQKRKKSLRKKLD (SEQ ID NO:92)
T2 sequence: DGQKRKKSLRKKLD

[3] = system: T3, ERN1 peptide KLAVGRHSFSRRSGV (SEQ ID NO:94)
T3 sequence: KLAVGRHSFSRRSGV

[4] = system: T4, FLJ20574 peptide GENVLKKSMKSRVKG (SEQ ID NO:113)
T4 sequence: GENVLKKSMKSRVKG

[5] = system: T5, MARCKS peptide KKKRFSFKKSFKLSGFSFKK (SEQ ID NO:111)
T5 sequence: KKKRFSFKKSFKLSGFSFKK

[6] = system: T6, MARCKS peptide KKRFSFKKSFKLSGFSFKKN (SEQ ID NO:123)
T6 sequence: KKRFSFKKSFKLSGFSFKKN

[7] = system: T7, MLK3 peptide QQVDRERPHVRRRRGTFKRS (SEQ ID NO:128)
T7 sequence: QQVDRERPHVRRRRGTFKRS

[8] = system: T8, MacMARCKS peptide KKKFSFKKPFKLSGLSFKRN (SEQ ID NO:162)
T8 sequence: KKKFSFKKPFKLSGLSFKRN

[9] = system: T9, PARIS1 peptide EYLERRASRRRAV (SEQ ID NO:130)
T9 sequence: EYLERRASRRRAV

[10] = system: T10, PARIS1 peptide EYLERRASRRRAV (SEQ ID NO:138)
T10 sequence: EYLERRASRRRAV

[11] = system: T11, PARIS1 peptide RELEQLKAEYLERRASRRRA (SEQ ID NO:148)
T11 sequence: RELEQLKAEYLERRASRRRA

[12] = system: T12, PRKCA peptide RFARKGSLRQKNV (SEQ ID NO:85)
T12 sequence: RFARKGSLRQKNV

[13] = system: T13, SDPR peptide EKIKRSSLKKVDSLKK (SEQ ID NO:104)
T13 sequence: EKIKRSSLKKVDSLKK

[14] = system: T14, ankyrin R peptide DLIEGRKGAQIVKRASLKRG (SEQ ID NO:152)
T14 sequence: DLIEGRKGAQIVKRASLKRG

[15] = system: T15, beta adducin peptide KKKFRTPSFLKKSKK (SEQ ID NO:135)
T15 sequence: KKKFRTPSFLKKSKK

[16] = system: T16, cytohesin-2 peptide VDPFYEMLAARKKRISVKKK (SEQ ID NO:150)
T16 sequence: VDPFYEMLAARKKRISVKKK

[17] = system: T17, dag kinase iota peptide PQNSLKASNRKKKRTSFKRK (SEQ ID NO:151)
T17 sequence: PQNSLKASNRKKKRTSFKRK

[18] = system: T18, p164-RhoGEF peptide PRLIRRGSKKRPAR (SEQ ID NO:124)
T18 sequence: PRLIRRGSKKRPAR

[19] = system: T19, p47phox peptide QAQRQIKRGAPPRRSSIRNA (SEQ ID NO:146)
T19 sequence: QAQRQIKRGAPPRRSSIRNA

[20] = system: T20, peptide AKNLKTLQKRDSFIG (SEQ ID NO:53)
T20 sequence: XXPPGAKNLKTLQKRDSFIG

[21] = system: T21, peptide DDMEHKTLKITDFG (SEQ ID NO:55)
T21 sequence: XXPPGDDMEHKTLKITDFG

[22] = system: T22, peptide DGQKRKKSLRKKLD (SEQ ID NO:16)
T22 sequence: XXPPGDGQKRKKSLRKKLD

[23] = system: T23, peptide DLLGKKVSTKTLSEDD (SEQ ID NO:51)
T23 sequence: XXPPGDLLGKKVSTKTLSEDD

[24] = system: T24, peptide EARLGAASLKFGARD (SEQ ID NO:56)
T24 sequence: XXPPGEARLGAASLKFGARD

[25] = system: T25, peptide GAPPRRSSIRNAH (SEQ ID NO:20)
T25 sequence: XXPPGGAPPRRSSIRNAH

[26] = system: T26, peptide GFAKKIGSGQKTWTF (SEQ ID NO:66)
T26 sequence: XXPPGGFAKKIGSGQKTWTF

[27] = system: T27, peptide GQAWGRQSPRRLED (SEQ ID NO:46)
T27 sequence: XXPPGGQAWGRQSPRRLED

[28] = system: T28, peptide HERKGSDKRGDNQ (SEQ ID NO:70)
T28 sequence: XXPPGHERKGSDKRGDNQ

[29] = system: T29, peptide HKHSPEKRGSERKEG (SEQ ID NO:52)
T29 sequence: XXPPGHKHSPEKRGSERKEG

[30] = system: T30, peptide IDYYKKTTNGRLPVK (SEQ ID NO:73)
T30 sequence: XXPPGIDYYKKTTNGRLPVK

[31] = system: T31, peptide KATTKKRTLRKNDRK (SEQ ID NO:32)
T31 sequence: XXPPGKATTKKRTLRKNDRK

[32] = system: T32, peptide PRLIRRGSKKRPAR (SEQ ID NO:6)
T32 sequence: XXPPGPRLIRRGSKKRPAR

[33] = system: T33, peptide QRQERIFSKRRGQDF (SEQ ID NO:63)
T33 sequence: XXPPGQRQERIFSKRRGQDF

[34] = system: T34, peptide RGEGHKPSIAHRDFK (SEQ ID NO:68)
T34 sequence: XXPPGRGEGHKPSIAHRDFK

[35] = system: T35, peptide RGFLRSASLGRRASFHLE (SEQ ID NO:15)
T35 sequence: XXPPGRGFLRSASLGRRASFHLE

[36] = system: T36, peptide RKNDRKKRYTVVGNP (SEQ ID NO:29)
T36 sequence: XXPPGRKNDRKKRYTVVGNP

[37] = system: T37, peptide VLAKKGTSKTPVPE (SEQ ID NO:44)
T37 sequence: XXPPGVLAKKGTSKTPVPE

[38] = system: T38, pleckstrin 1 peptide KAIKAIEGGQKFARKSTRRS (SEQ ID NO:126)
T38 sequence: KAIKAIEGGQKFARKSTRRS

[39] = system: T39, plectin peptide PLKEKKRERKTSSKSSVRKR (SEQ ID NO:125)
T39 sequence: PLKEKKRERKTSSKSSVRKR

PKC-delta
in vitro phosphorylation, 1 uM peptide (% of best substrate) [1]: 41 | in vitro phosphorylation, 10 uM peptide (% of best substrate) [1]: 47 | in vitro phosphorylation (% of best substrate) [2]: 17 | in vitro phosphorylation (% of best substrate) [3]: 12 | in vitro phosphorylation (% of best substrate) [4]: 4 | in vitro phosphorylation (% of best substrate) [5]: 16 | in vitro phosphorylation, 1 uM peptide (% of best substrate) [6]: 45 | in vitro phosphorylation, 10 uM peptide (% of best substrate) [6]: 22 | in vitro phosphorylation, 1 uM peptide (% of best substrate) [7]: 46 | in vitro phosphorylation, 10 uM peptide (% of best substrate) [7]: 57 | in vitro phosphorylation, 1 uM peptide (% of best substrate) [8]: 21 | in vitro phosphorylation, 10 uM peptide (% of best substrate) [8]: 13 | in vitro phosphorylation, 1 uM peptide (% of best substrate) [9]: 46 | in vitro phosphorylation, 10 uM peptide (% of best substrate) [9]: 20 | in vitro phosphorylation, 1 uM peptide (% of best substrate) [10]: 49 | in vitro phosphorylation, 10 uM peptide (% of best substrate) [10]: 28 | in vitro phosphorylation, 1 uM peptide (% of best substrate) [11]: 27 | in vitro phosphorylation, 10 uM peptide (% of best substrate) [11]: 14 | in vitro phosphorylation (% of best substrate) [12]: 34 | in vitro phosphorylation (% of best substrate) [13]: 10 | in vitro phosphorylation, 1 uM peptide (% of best substrate) [14]: 35 | in vitro phosphorylation, 10 uM peptide (% of best substrate) [14]: 18 | in vitro phosphorylation, 1 uM peptide (% of best substrate) [15]: 40 | in vitro phosphorylation, 10 uM peptide (% of best substrate) [15]: 25 | in vitro phosphorylation, 1 uM peptide (% of best substrate) [16]: 34 | in vitro phosphorylation, 10 uM peptide (% of best substrate) [16]: 20 | in vitro phosphorylation, 1 uM peptide (% of best substrate) [17]: 27 | in vitro phosphorylation, 10 uM peptide (% of best substrate) [17]: 37 | in vitro phosphorylation, 1 uM peptide (% of best substrate) [18]: 69 | in vitro phosphorylation, 10 uM peptide (% of best substrate) [18]: 43 | in vitro phosphorylation, 1 uM peptide (% of best substrate) [19]: 33 | in vitro phosphorylation, 10 uM peptide (% of best substrate) [19]: 14 | in vitro phosphorylation (% of best substrate) [20]: 2 | in vitro phosphorylation (% of best substrate) [21]: 2 | in vitro phosphorylation (% of best substrate) [22]: 17 | in vitro phosphorylation (% of best substrate) [23]: 2 | in vitro phosphorylation (% of best substrate) [24]: 2 | in vitro phosphorylation (% of best substrate) [25]: 13 | in vitro phosphorylation (% of best substrate) [26]: 1 | in vitro phosphorylation (% of best substrate) [27]: 2 | in vitro phosphorylation (% of best substrate) [28]: 1 | in vitro phosphorylation (% of best substrate) [29]: 2 | in vitro phosphorylation (% of best substrate) [30]: 0 | in vitro phosphorylation (% of best substrate) [31]: > 5 | in vitro phosphorylation (% of best substrate) [32]: 40 | in vitro phosphorylation (% of best substrate) [33]: 1 | in vitro phosphorylation (% of best substrate) [34]: 1 | in vitro phosphorylation (% of best substrate) [35]: 18 | in vitro phosphorylation (% of best substrate) [36]: 8 | in vitro phosphorylation (% of best substrate) [37]: 2 | in vitro phosphorylation, 1 uM peptide (% of best substrate) [38]: 47 | in vitro phosphorylation, 10 uM peptide (% of best substrate) [38]: 43 | in vitro phosphorylation, 1 uM peptide (% of best substrate) [39]: 46 | in vitro phosphorylation, 10 uM peptide (% of best substrate) [39]: 36
